Experimental data taken from the RNAGym collection of RNA variant scans (doi:10.1093/nar/gkz1192).

B1: CPEB3 Ribozyme (parent)
chain: UAACAGGGGGCCACAGCAGAAGCGUUCACGUCGCAGCCCCUGUCAGAUUCUGGUGAAUCUGCGAAUUCUGCUGUAUAUCUC

Variants of: B1
Test: self-cleavage, relative activity (ratio to wild type); higher = more cleavage; in vitro, sequencing
How it was run: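 After error-prone PCR and barcoding, CPEB3 ribozyme mutant libraries were transcribed with T7 RNA polymerase at 37°C for 5 hours, then given 15 min with DNase I before an EDTA stop, and they cleaved during both steps. Reverse transcription with template switching preceded Illumina sequencing. Relative activity divides a variant's cleaved/total read fraction by the unmutated ribozyme's. At least 5 reads were required per variant, and three batches were averaged.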

Variant | self-cleavage
UAACAGGGGGCCACAGCAGAAGCGUUCACGUCGCAGUCCCUGUCAGAUUCUGGUGAAUCUGCGGAUUCUGCUGUAUAUCUC | 0.6
UAACAGGGGGCCACAGCAGAAGCGUUCACGUCGCAGUCCCUGUCAGAUUCUGGUGAAUCUGCGUAUUCUGCUGUAUAUCUC | 0.27
UAACAGGGGGCCACAGCAGAAGCGUUCACGUCGCAGUCCCUGUCAGAUUCUGGUGAAUCUGCGAAUUCUGCUGUAUGUCUC | 0.78
UAACAGGGGGCCACAGCAGAAGCGUUCACGUCGCAGUCCCUGUCAGAUUCUGGUGAAUCUGCGAAUUCUGCUGUAUUUCUC | 0.91
UAACAGGGGGCCACAGCAGAAGCGUUCACGUCGCAGGCCCUGUCAGAUUCUGGUGAGUCUGCGAAUUCUGCUGUAUAUCUC | 0.44
UAACAGGGGGCCACAGCAGAAGCGUUCACGUCGCAGUCCCUGUCAGAUUCUGGUGAAUCUGCAAAUUCUGCUGUAUAUCUC | 0.54
UAACAGGGGGCCACAGCAGAAGCGUUCACGUCGCAGUCCCUGUCAGAUUCUGGUGAAUCUGCUAAUUCUGCUGUAUAUCUC | 0.84
UAACAGGGGGCCACAGCAGAAGCGUUCACGUCGCAGGCCCUGUCAGAUUCUGGUGAAUCUGGGAAUUCUGCUGUAUAUCUC | 0.5
UAACAGGGGGCCACAGCAGAAGCGUUCACGUCGCAGGCCCUGUCAGACUCUGGUGAAUCUGCGAAUUCUGCUGUAUAUCUC | 0.45
UAACAGGGGGCCACAGCAGAAGCGUUCACGUCGCAGUCCCUGUCAGAUUCUAGUGAAUCUGCGAAUUCUGCUGUAUAUCUC | 0.93
UAACAGGGGGCCACAGCAGAAGCGUUCACGUCGCAGGCCCUGUCAGAUUCUGGUGAAUCUGCGUAUUCUGCUGUAUAUCUC | 0.22
UAACAGGGGGCCACAGCAGAAGCGUUCACGUCGCAGGCCCUGUCAGAUUCUGGUGAAUCUGCGGAUUCUGCUGUAUAUCUC | 0.54
UAACAGGGGGCCACAGCAGAAGCGUUCACGUCGCAGGCCCUGUCAGAUCCUGGUGAAUCUGCGAAUUCUGCUGUAUAUCUC | 0.38
UAACAGGGGGCCACAGCAGAAGCGUUCACGUCGCAGGCCCUGUCAGAUUCGGGUGAAUCUGCGAAUUCUGCUGUAUAUCUC | 0.78
UAACAGGGGGCCACAGCAGAAGCGUUCACGUCGCAGGCCCUGUCGGAUUCUGGUGAAUCUGCGAAUUCUGCUGUAUAUCUC | 0.7
UAACAGGGGGCCACAGCAGAAGCGUUCACGUCGCAGGCCCUGUCUGAUUCUGGUGAAUCUGCGAAUUCUGCUGUAUAUCUC | 0.13
UAACAGGGGGCCACAGCAGAAGCGUUCACGUCGCAGGCCCUGUCAGAUUCUGGUGAAUCUGCGAAUUCAGCUGUAUAUCUC | 0.19
UAACAGGGGGCCACAGCAGAAGCGUUCACGUCGCAGGCCCUGUCAGAUUCUGGUGAAUCUGCGAAUUCCGCUGUAUAUCUC | 0.23
UAACAGGGGGCCACAGCAGAAGCGUUCACGUCGCAGUCCGUGUCAGAUUCUGGUGAAUCUGCGAAUUCUGCUGUAUAUCUC | 0.22
UAACAGGGGGCCACAGCAGAAGCGUUCACGUCGCAGUCCAUGUCAGAUUCUGGUGAAUCUGCGAAUUCUGCUGUAUAUCUC | 0.21
UAACAGGGGGCCACAGCAGAAGCGUUCACGUCGCAGUCCCUGUCAGAUUCUGGUUAAUCUGCGAAUUCUGCUGUAUAUCUC | 0.88
UAACAGGGGGCCACAGCAGAAGCGUUCACGUCGCAGGCCCUGUCAGGUUCUGGUGAAUCUGCGAAUUCUGCUGUAUAUCUC | 0.58
UAACAGGGGGCCACAGCAGAAGCGUUCACGUCGCAGGCCCUGUCAGAUUCUGGUGAAUCUGCGAAUUCUGCUGUAUAUCCC | 1

Variant | self-cleavage
UAACAGGGGGCCACAGCAGAAGCGUUCACGUCGCAGGCCCUGUCAGAUUCUGGUGAAUCUGCGAAUUCUGCUGUAUAUCGC | 1.16
UAACAGGGGGCCACAGCAGAAGCGUUCACGUCGCAGGCCCUGUCAGAUUCUGGUGAAUCUGCGAAUUCUGCUGUAUAUCAC | 1.18
UAACAGGGGGCCACAGCAGAAGCGUUCACGUCGCAGUCCCUGUCAGAUUCUGGUGAAUCUGCGAAUUCUGUUGUAUAUCUC | 0.38
UAACAGGGGGCCACAGCAGAAGCGUUCACGUCGCAGUCCCUGUCAGAUUCUGGUGAAUCUGCGAAUUCUGGUGUAUAUCUC | 0.21
UAACAGGGGGCCACAGCAGAAGCGUUCACGUCGCAGUCCCUGUCAGAUUCUGGUGAAUCUGCGAAUUCUGCUGUAUAUAUC | 1.11
UAACAGGGGGCCACAGCAGAAGCGUUCACGUCGCAGUCCCUGUCAGAUUCUGGUGAAUCUGCGAAUUCUGCUGUAUAUUUC | 1.03
UAACAGGGGGCCACAGCAGAAGCGUUCACGUCGCAGUCCCUGUCAGAUUCUGGUGAGUCUGCGAAUUCUGCUGUAUAUCUC | 0.58
UAACAGGGGGCCACAGCAGAAGCGUUCACGUCGCAGGCCCUGUAAGAUUCUGGUGAAUCUGCGAAUUCUGCUGUAUAUCUC | 0.39
UAACAGGGGGCCACAGCAGAAGCGUUCACGUCGCAGUCCCUGUCAGAUUCUGGUGAAUCUGCGAAUUCUGCUGUGUAUCUC | 0.59
UAACAGGGGGCCACAGCAGAAGCGUUCACGUCGCAGUCCCUGUCGGAUUCUGGUGAAUCUGCGAAUUCUGCUGUAUAUCUC | 0.5
UAACAGGGGGCCACAGCAGAAGCGUUCACGUCGCAGUCCCUGUCUGAUUCUGGUGAAUCUGCGAAUUCUGCUGUAUAUCUC | 0.4
UAACAGGGGGCCACAGCAGAAGCGUUCACGUCGCAGUCCCUGUCCGAUUCUGGUGAAUCUGCGAAUUCUGCUGUAUAUCUC | 0.29
UAACAGGGGGCCACAGCAGAAGCGUUCACGUCGCAGGCCCUGUCAGAUUCUGGUGAAUCUGCGAAUACUGCUGUAUAUCUC | 0.48
UAACAGGGGGCCACAGCAGAAGCGUUCACGUCGCAGGCCCUGUCAGAUUCUGGUGAAUCUGCGAAUUAUGCUGUAUAUCUC | 0.18
UAACAGGGGGCCACAGCAGAAGCGUUCACGUCGCAGGCCCUGUCAGAUUCUGGUGAAUCUGCGAAUUCUGCUGUUUAUCUC | 1.13
UAACAGGGGGCCACAGCAGAAGCGUUCACGUCGCAGACCCUGUCAGAUUCUGGUGAAUCUGCGAAUUCUGCUGUAUACCUC | 0.35
UAACAGGGGGCCACAGCAGAAGCGUUCACGUCGCAGACCCUGUCAGAUUCUGGUGAAUCUGCGAAUUCUGCUGUAUAACUC | 0.2
UAACAGGGGGCCACAGCAGAAGCGUUCACGUCGCAGACCCUGUCAGAUUCUGGUGAAUCUGCGAAUUCUGCUGCAUAUCUC | 0.17
UAACAGGGGGCCACAGCAGAAGCGUUCACGUCGCAGUCCCUGUUAGAUUCUGGUGAAUCUGCGAAUUCUGCUGUAUAUCUC | 0.13
UAACAGGGGGCCACAGCAGAAGCGUUCACGUCGCAGGCCCUUUCAGAUUCUGGUGAAUCUGCGAAUUCUGCUGUAUAUCUC | 0.29
UAACAGGGGGCCACAGCAGAAGCGUUCACGUCGCAGUCCCUGUCAGAUUCUGGUGAAUCUACGAAUUCUGCUGUAUAUCUC | 0.21
UAACAGGGGGCCACAGCAGAAGCGUUCACGUCGCAGUCCCUGUCAGGUUCUGGUGAAUCUGCGAAUUCUGCUGUAUAUCUC | 0.58
UAACAGGGGGCCACAGCAGAAGCGUUCACGUCGCAGUCCCUGUCAGUUUCUGGUGAAUCUGCGAAUUCUGCUGUAUAUCUC | 0.39

Variant | self-cleavage
UAACAGGGGGCCACAGCAGAAGCGUUCACGUCGCAGGCCCUGUCAGAUUCUGGUGAAUGUGCGAAUUCUGCUGUAUAUCUC | 0.13
UAACAGGGGGCCACAGCAGAAGCGUUCACGUCGCAGACCCUGUCAGAUUCUGGUGAAUCUGCGAAUUCUGCCGUAUAUCUC | 0.33
UAACAGGGGGCCACAGCAGAAGCGUUCACGUCGCAGGCCCUGCCAGAUUCUGGUGAAUCUGCGAAUUCUGCUGUAUAUCUC | 0.29
UAACAGGGGGCCACAGCAGAAGCGUUCACGUCGCAGUCCCUGUCAGAUUAUGGUGAAUCUGCGAAUUCUGCUGUAUAUCUC | 0.47
UAACAGGGGGCCACAGCAGAAGCGUUCACGUCGCAGGCCCUGUCAGAUUCUGGUGAAUCUGCGAAUUCUGCUGCAUAUCUC | 0.9
UAACAGGGGGCCACAGCAGAAGCGUUCACGUCGCAGGCCCUGUCAGAUUCUGGUGAAUCUGCGAAUUCUGCUGAAUAUCUC | 1.13
UAACAGGGGGCCACAGCAGAAGCGUUCACGUCGCAGGCCAUGUCAGAUUCUGGUGAAUCUGCGAAUUCUGCUGUAUAUCUC | 0.29
UAACAGGGGGCCACAGCAGAAGCGUUCACGUCGCAGGCCCUGUCAGAUUCUGGUGAAUCUGCGAAUUCUGCUGUAUAUCUC | 0.8
UAACAGGGGGCCACAGCAGAAGCGUUCACGUCGCAGUCCCUGUCAGAUUCUGGUGAAUCUGCGAAUUCUGCUGUAUAUCUC | 0.79
UAACAGGGGGCCACAGCAGAAGCGUUCACGUCGCAGACCCUGUCAGAUUCUGGUGAAUCUGCGAAUUCUGCUGUACAUCUC | 0.35
UAACAGGGGGCCACAGCAGAAGCGUUCACGUCGCAGUCCCUGUCAGAUUCUGGUGAAUCUGCGAAUUCUACUGUAUAUCUC | 0.32
UAACAGGGGGCCACAGCAGAAGCGUUCACGUCGCAGGCCCUGUCAGAUUCUGGUGAAUCUGCGAAUUCUGCAGUAUAUCUC | 0.92
UAACAGGGGGCCACAGCAGAAGCGUUCACGUCGCAGGCCCUGUCAGAUUCUGGUGAAUCUGCGAAUUCUGCCGUAUAUCUC | 1.14
UAACAGGGGGCCACAGCAGAAGCGUUCACGUCGCAGUCCCUGUCAGAUUCUGGUGAAUCUGCGAGUUCUGCUGUAUAUCUC | 0.28
UAACAGGGGGCCACAGCAGAAGCGUUCACGUCGCAGUCCCUGUCAGAUUCUGGUGAAUCUGCGAUUUCUGCUGUAUAUCUC | 0.16
UAACAGGGGGCCACAGCAGAAGCGUUCACGUCGCAGGCCCUGUCAGAUUCUGGUGAAUCUGCGAAUUCUCCUGUAUAUCUC | 0.2
UAACAGGGGGCCACAGCAGAAGCGUUCACGUCGCAGGCCCUGUCAGAUUCUGGUGAAUCUGCGAAUUCUGCUGUAUUUCUC | 0.61
UAACAGGGGGCCACAGCAGAAGCGUUCACGUCGCAGUCCCUGUCAGAUUCUGGUGAAUCUGCGAAUUCUGCUAUAUAUCUC | 1.43
UAACAGGGGGCCACAGCAGAAGCGUUCACGUCGCAGUCCCUGUCAGAUUCUGGUGGAUCUGCGAAUUCUGCUGUAUAUCUC | 0.45
UAACAGGGGGCCACAGCAGAAGCGUUCACGUCGCAGUCCCUGUCAGAUUCUGGUGUAUCUGCGAAUUCUGCUGUAUAUCUC | 0.47
UAACAGGGGGCCACAGCAGAAGCGUUCACGUCGCAGGCCCUGUCAGAUUCUGGUGAAUCUGCGAAUUCUGCUGUAUACCUC | 0.68
UAACAGGGGGCCACAGCAGAAGCGUUCACGUCGCAGUCCCUGUCAGAUUCUGGUGAAUAUGCGAAUUCUGCUGUAUAUCUC | 0.22
